Legend:
[1] = molecular target: HLA-B*08 (human); assay: UV peptide exchange ELISA
[2] = molecular target: HLA-B*44 (human); assay: UV peptide exchange ELISA

Question: How did the peptide exchange yield [1] turn out when VIKEKALTL was run?
Answer: Its peptide exchange yield is 50 to 75%.

Question: ALKLRVAVL was tested. Which peptide exchange yield [1] did it give?
Answer: Its peptide exchange yield is greater than 75%.

Question: For SEIGKAVGF, which peptide exchange yield [2] is on record?
Answer: Its peptide exchange yield is greater than 75%.

Question: For MPMQDIKM, which peptide exchange yield [1] is on record?
Answer: Its peptide exchange yield is greater than 75%.

Question: ILLPRTVSL was tested. Which peptide exchange yield [1] did it give?
Answer: Its peptide exchange yield is greater than 75%.

Question: How did the peptide exchange yield [1] turn out when LPFPKFTV was run?
Answer: The peptide exchange yield was greater than 75%.

Question: With DIYQRALNL as the binder, how does the peptide exchange yield [1] read?
Answer: The peptide exchange yield was greater than 75%.

Question: With LPPKKFVL as the binder, how does the peptide exchange yield [1] read?
Answer: The peptide exchange yield was greater than 75%.

Question: For AEDQLHHSF, which peptide exchange yield [2] is on record?
Answer: Its peptide exchange yield is 50 to 75%.

Question: How did the peptide exchange yield [2] turn out when QENSYQSRL was run?
Answer: Its peptide exchange yield is 50 to 75%.

Question: Which peptide exchange yield [2] does the source give for SEIEQEIGSL here?
Answer: The peptide exchange yield was 50 to 75%.

Question: How did the peptide exchange yield [1] turn out when FNKRKPLSL was run?
Answer: The peptide exchange yield was 50 to 75%.

Question: How did the peptide exchange yield [1] turn out when EIRIRVVQM was run?
Answer: The peptide exchange yield was greater than 75%.

Question: Which peptide exchange yield [2] does the source give for GEVSGLTKDF here?
Answer: Its peptide exchange yield is 20 to 50%.

Question: ELKKLYCQI was tested. Which peptide exchange yield [1] did it give?
Answer: The peptide exchange yield was greater than 75%.

Question: With AIISRLVAL as the binder, how does the peptide exchange yield [1] read?
Answer: Its peptide exchange yield is greater than 75%.

Question: How did the peptide exchange yield [1] turn out when EAAIRSVEL was run?
Answer: Its peptide exchange yield is greater than 75%.

Question: Which peptide exchange yield [1] does the source give for ILKVKVGL here?
Answer: The peptide exchange yield was greater than 75%.

Question: Which peptide exchange yield [1] does the source give for VASPKHCVL here?
Answer: Its peptide exchange yield is 50 to 75%.

Question: Which peptide exchange yield [2] does the source give for AEVGFVRFF here?
Answer: The peptide exchange yield was greater than 75%.

Question: With DAIQRKYSC as the binder, how does the peptide exchange yield [1] read?
Answer: The peptide exchange yield was 50 to 75%.

Question: With RAQLKLVAL as the binder, how does the peptide exchange yield [1] read?
Answer: The peptide exchange yield was greater than 75%.

Question: For AEIQPQTQV, which peptide exchange yield [2] is on record?
Answer: The peptide exchange yield was 50 to 75%.

Question: With RELQHEHSL as the binder, how does the peptide exchange yield [2] read?
Answer: Its peptide exchange yield is 50 to 75%.

Question: Which peptide exchange yield [1] does the source give for ELKKKEYEEL here?
Answer: The peptide exchange yield was greater than 75%.

Question: How did the peptide exchange yield [1] turn out when EAMLRNKEL was run?
Answer: Its peptide exchange yield is greater than 75%.

Question: Which peptide exchange yield [2] does the source give for TEREWADEW here?
Answer: Its peptide exchange yield is 50 to 75%.

Question: SEDDPILQI was tested. Which peptide exchange yield [2] did it give?
Answer: Its peptide exchange yield is 50 to 75%.

Question: For YMHKLLVL, which peptide exchange yield [1] is on record?
Answer: The peptide exchange yield was greater than 75%.

Question: MAQFKEISL was tested. Which peptide exchange yield [1] did it give?
Answer: The peptide exchange yield was greater than 75%.

Question: LVKVKVLL was tested. Which peptide exchange yield [1] did it give?
Answer: Its peptide exchange yield is greater than 75%.

Question: How did the peptide exchange yield [1] turn out when HLLQKQTSI was run?
Answer: Its peptide exchange yield is 50 to 75%.

Question: For EENDQSTHKW, which peptide exchange yield [2] is on record?
Answer: Its peptide exchange yield is 50 to 75%.

Question: With MLKQKVEEL as the binder, how does the peptide exchange yield [1] read?
Answer: Its peptide exchange yield is greater than 75%.

Question: For SEIEDSTKQVF, which peptide exchange yield [2] is on record?
Answer: The peptide exchange yield was 50 to 75%.

Question: For TEFPIIKMY, which peptide exchange yield [2] is on record?
Answer: Its peptide exchange yield is 20 to 50%.
